Results on one molecule are retold here after PMC12331169, “Structural and functional studies of rabbit SAMD9 reveal a distinct tRNase module that underlies the antiviral activity”.

This series has as its target T1, rSAMD9 158-389 (tRNase domain) (Oryctolagus cuniculus (European rabbit; …, UniProt G1U2M9 158-389).
T1 sequence: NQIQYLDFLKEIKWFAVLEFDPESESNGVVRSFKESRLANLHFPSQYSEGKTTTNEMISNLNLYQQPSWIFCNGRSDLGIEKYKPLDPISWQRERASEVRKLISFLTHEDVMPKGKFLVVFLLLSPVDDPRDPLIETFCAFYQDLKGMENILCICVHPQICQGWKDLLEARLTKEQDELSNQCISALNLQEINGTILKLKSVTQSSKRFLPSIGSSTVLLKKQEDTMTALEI
Kind of series: EMSA; stable complex predominant at 2:1 protein:dsDNA; no DNA density seen in the crystal; EMSA on 0.8% native agarose gel, EtBr then Coomassie stain; buffer, salt, pH and temperature not given (as in earlier paper). The settings on record: protein: recombinant; tags: 6xHis-SUMO removed by Ulp1; chain copies: 2; blunt. A general note: In EMSA bound probe runs differently from free probe, usually more slowly.

B1: 26-nt dsDNA (dsDNA)
DNA 1: TATTCAAATTAATGATTTATTCAATT
DNA 2: AATTGAATAAATCATTAATTTGAATA
Consider B1, for which the binding result is “binds”.
